Data taken from patent publication US8440804B2, “Polypeptides having modulatory effects on cells” (Ecole Normale Superieure de Lyon, priority 2006, dated 2013).

Assays:
peptide aptamer RG22 = experiment: Yeast two-hybrid mating assay, positive control of interaction; assay type: binding; conditions: RG22 interacts with LexA in most LexA fusion proteins
Text: (§1) (A) Yeast two-hybrid mating assay. TB50α yeast were co-transformed with pSH18-34T (bearing a lacZ reporter gene) and plasmids directing the expression of LexA alone or in fusion with peptide aptamers R5G42, R7G44 or R5G52. MB210a yeast were transformed with the selected cDNA library plasmids directing the expression of CNAβ, CNAγ, and NS5ATP2 truncated proteins. To obtain negative controls, MB210a yeast were also transformed with the empty prey plasmid (pJG4-5) and with pJG4-5 directing the expression of Ras and FKBP12 prey proteins. To obtain a positive control, MB210a yeast were transformed with pJG4-5 directing the expression of RG22 peptide aptamer prey fusion protein that interacts with LexA in the context of most LexA fusion proteins.
(§2) The inventors set out to map the R5G42 binding site on CNA. The CNA interacting clones selected in the yeast two-hybrid experiments corresponded to the carboxy-terminal regions of the beta and gamma isoforms, encompassing the calmodulin-binding domain and the auto-inhibitory domain (see FIG. 3B). […] The LexA-R5G52 bait protein may thus not be properly expressed and/or folded in this yeast two-hybrid setting.
(§3) The 5′ end of RH6 (upper case) matches part of the HA epitope tag and the 5′ ends of RH4, RH3 and RH7 (upper case) match the 5′ extremity of the ADH terminator. The PCR reactions was performed using pCMV-SPORT6-CnAβ as a template. […]

[1] = tested on: CNA fragments (CNA constructs CNA1-CNA11); experiment: Further yeast two-hybrid binding assays (higher sensitivity); set-up: species or system human
Text: FIG. 14. Specificity of aptamers according to the invention for CNA and NS5A-TP2 Interaction matrix between peptide aptamers R5G42, C2, C7, C8, N9, R5G44 and R5G52 with CNA constructs CNA1-CNA8 (A) CNA9-11 (B) and NS5A-TP2 (C). An interaction phenotype between CNA3/CNA 11, which both contain the Calmodulin binding domain (CaM) and the auto-inhibitory domain (Al) but not the CNB binding domain (CNB) and the aptamers R5G42, C2, C7, C8 and N9 is observed in a two-hybrid assay. R5G44 and R5G52 aptamers recognize neither the CNA fragments, nor NS5A-TP2. Only aptamers R5G42 and N9 recognize NS5A-TP2.
The inventors proceeded to further yeast two-hybrid binding assays between peptide aptamers R5G42 (SEQ ID 22), C2 (SEQ ID 23), C7 (SEQ ID 27), C8 (SEQ ID 28), N9 (SEQ ID 33), R5G44 and R5G52 with CNA constructs CNA1-CNA8 (FIG. 14A), CNA9-CNA11 (FIG. 14B) and NS5A-TP2 (SEQ ID 15) (FIG. 14C). The sensitivity of this yeast two-hybrid assay was higher than in the experiment reported above.

MCF-7 cells = experiment: Colony formation assay (cell proliferation assay, crystal violet); assay type: cell-based; conditions: MCF-7, continuous expression 2 weeks, compared to AptaLib and human thioredoxin
Method: (§4) (B) Colony formation assays. Hela or MCF-7 cells were transfected with plasmids directing the stable expression of the Cdk inhibitor p21, a library of peptide aptamers from pBK1 (AptaLib), Human thioredoxin (HTRX), and peptide aptamers R7G44, R5G42, R5G52. The cells were cultured for two weeks and the colonies were stained with crystal violet.
(§5) The inventors wished to establish the antiproliferative activity of these peptide aptamers using alternative cellular models and a non-retroviral vector to express individually each aptamer. They cloned the aptamer coding genes into a vector bearing a hygromycin selection marker. They also subcloned the pBK1 library into this vector, to create “AptaLib”. They continuously expressed the aptamers, the empty thioredoxin scaffold or AptaLib in Hela and MCF-7 cells for 2 weeks and they stained the cells that grew. […] These aptamers may originate from the remaining background of slowly proliferating cells during the seventh screening iteration, independently of the expressed aptamers. […] This could be due to the fact that the CMTMR assay is more sensitive in detecting modest antiproliferative effects than the colony formation assay or that some peptide aptamers somehow enhance the CMTMR labeling of their host cells.
(§6) To stably express peptide aptamers in mammalian cells, the episomal eukaryotic expression vector pCEP4 that bears a CMV promoter and a hygromycin selection marker (InVitrogen) was used. Aptamer coding sequences were PCR amplified using the oligonucleotides
(§7) that contained a stop codon. The PCR products were digested with NheI and NotI and ligated into NheI/NotI-cut pCEP4 to create pEA-aptamer plasmids. 3×10^5 cells/well were plated in 6-well plates and transfected 24 h after using Jet PEI (Qbiogen), 3.7 μg pEA-aptamer plasmids and 0.3 μg pEGFP-C1 (Clontech) to monitor transfection. Hygromycin (InVitrogen) was added at 200 μg/ml two days later and the cells were cultured for 2 weeks, renewing the medium twice a week. The cells were then rinsed in PBS and were fixed and stained by incubating 30 min in crystal violet (0.05% crystal violet, 20% ethanol, 0.37% formaldehyde). Excess crystal violet was removed by washing with water. In Vitro Phosphatase Assay

Hela cells = experiment: as above; assay type: cell-based; conditions: continuous expression 2 weeks, compared to AptaLib and human thioredoxin
Method: as §4, §5, §6, §7

[2] = tested on: Bad phosphorylation (phosphatase activity of calcineurin in cells); experiment: Monitoring of Bad phosphorylation in HeLa cells (western blot); assay type: cell-based; conditions: transient expression in human cells
Method: (B) Monitoring of BAD phosphorylation in cultured cells. Hela-Tet cells were transfected with plasmids directing the transient expression of BAD, CNAβ, CNB and peptide aptamers R5G42, R5G52 or R7G44. Transfected cells were treated or not with 500 nM FK506. The expression level of BAD and the phosphorylation of serine 112 and 136 residues were monitored by western blot experiments using specific antibodies.
The inventors set out to confirm this finding in human cells. Bad is a key pro-apoptotic protein whose activity is tightly regulated by its phosphorylation status, itself controlled by the balanced activity of several protein kinases and calcineurin. Therefore, the phosphatase activity of calcineurin in cells can be monitored by examining Bad phosphorylation. HeLa cells were transfected with plasmids directing the expression of Bad, CNAβ, CNB and either R5G42, R5G52 or R7G44.
The peptide aptamer coding genes were cloned into pPEAt (a pCEP4-based vector that bears a tetracyclin-inducible promoter and a hygromycin resistance gene), as described above (“cell proliferation assay”).
4×10^5 Hela-tet cells/well were seeded in a 6-well plate 24 h before transfection. […] The lysates were centrifuged to remove cellular debris and the protein content was quantified using the microBCA protein assay kit (Pierce). […]

CNA = experiment: Yeast two-hybrid assay; assay type: binding, human; conditions: mating assay, LexA-aptamer fusions
Text: as §1, §2
The inventors explored the ability of R5G42 mutants having a one amino acid change as compared to R5G42, to bind to CNA beta and gamma C-Terminal fragments (FIG. 3b) and to NS5A-TP2. To this end, they proceeded to yeast-two hybrid assays as in example 3. CNA beta and gamma C-Terminal fragments (FIG. 3b) and NS5A-TP2 were cloned in three different plasmids (pSH18-34, pJK103 and pRB18-40), which differed from each other in the level of sensitivity of their promoter to the bait/prey complex formation, pSH18-34 having the highest sensitivity and pRB18-40 having the lowest.
as §3, with “template. CnAβCter Δ1, Δ2, CaM were constructed by combining oligonucleotides RH6/RH4, RH6/RH3, RH6/RH7, respectively.” for “template.”

B1: R5G52: peptide aptamer: variable region IQSPPESPTG in human thioredoxin (SEQ ID 32) (protein)
chain: MVKQIESKTAFQEALDAAGDKLVVVDFSATWCGPIQSPPESPTGGPCKMIKPFFHSLSEKYSNVIFLEVDVDDCQDVASECEVKCMPTFQFFKKGQKVGEFSGANKEKLEATINELV
modifications: left off: large carriers
Peptide aptamer RG22
  yeast two-hybrid interaction phenotype: did not show an interaction phenotype
[1]
  recognition of the CNA fragments: recognized neither the CNA fragments
MCF-7 cells
  inhibition of cell proliferation (colony formation): significantly inhibited the proliferation
Hela cells
  inhibition of cell proliferation (colony formation): significantly inhibited the proliferation
[2]
  Bad phosphorylation levels: does not affect Bad phosphorylation levels
CNA
  yeast two-hybrid interaction phenotype with CNA: did not show an interaction phenotype
